B1: chimeric antibody Ta1505 (antibody, human IgG1, kappa, V domains shown)
VH: EVQLVESGGGLVQPKGSLKLSCAASGFAFNSFALNWVRQAPGKSLEWVVHIRSKTNNYATFYADSVKDRFTVSRDDSQSMVYLQMNNLKTEDTGIYYCVRRGPRDSWFGYWGQGTLVTVSA
VL: DILMTQTPLSLPVSLGDQASISCRSSQNIVHSNGNTYLEWYLQKPGQSPKVLIYTVSNRFSGVPDRFSGSGSGTDFTLKISRVEAEDLGVYYCFQGSHLPLTFGGGTKLELKR
notes: Mouse Ta1505 variable regions with human IgG1(kappa) constant regions. chim; also called the chimeric antibody; Chimera
B2: humanized antibody L48H11 (antibody, human IgG1, kappa, V domains shown)
VH: EVQLVESGGGLVQPGGSLRLSCAASGFTFSSFALNWVRQAPGKGLEWVGHIRSKTNNYATFYAASVKDRFTVSRDDSQNTAYLQMNSLKTEDTATYYCVRRGPRDSWFGYWGQGTLVTVSS
VL: B1 VL with L3V, T7S, S14T, Q18P, L42Q, K50Q, V51L, L109V, L111I
notes: VL48/VH11, human IgG1/kappa
B3: humanized antibody L47H64 (antibody, human IgG1, kappa, V domains shown)
VH: B2 VH with S30N, G49V
VL: B1 VL with L3V, T7S, S14T, Q18P, N28S, L42Q, K50Q, V51R, L109V, L111I
notes: VL47/VH64, human IgG1/kappa
B4: humanized antibody L15H11 (antibody, human IgG1, kappa, V domains shown)
VH: B2 VH
VL: DIVMTQSPLSLPVTLGEPASISCRSSQSIVHSNGNTYLEWYQQKPGQSPRLLIYTVSNRFSGVPDRFSGSGSGTDFTLKISRVEAEDLGVYYCFQGSHLPLTFGGGTKVEIKR
notes: VL15/VH11, human IgG1/kappa
B5: humanized antibody L36H11 (antibody, human IgG1, kappa, V domains shown)
VH: B2 VH
VL: B4 VL with E17D, R50Q
notes: VL36/VH11, human IgG1/kappa

Substitutions are numbered along the chain they refer to. [ ]: non-standard residue; d: D form. pT = C[C@@H](OP(=O)(O)O)[C@H](N)C(=O)O; pS = N[C@@H](COP(=O)(O)O)C(=O)O

Data on 5 molecules can be found in patent US20180346564A1 (TEIJIN PHARMA, published 2018).

T9 sequence (P10636 other isoform, or with tags, fused parts or gaps limits assumed): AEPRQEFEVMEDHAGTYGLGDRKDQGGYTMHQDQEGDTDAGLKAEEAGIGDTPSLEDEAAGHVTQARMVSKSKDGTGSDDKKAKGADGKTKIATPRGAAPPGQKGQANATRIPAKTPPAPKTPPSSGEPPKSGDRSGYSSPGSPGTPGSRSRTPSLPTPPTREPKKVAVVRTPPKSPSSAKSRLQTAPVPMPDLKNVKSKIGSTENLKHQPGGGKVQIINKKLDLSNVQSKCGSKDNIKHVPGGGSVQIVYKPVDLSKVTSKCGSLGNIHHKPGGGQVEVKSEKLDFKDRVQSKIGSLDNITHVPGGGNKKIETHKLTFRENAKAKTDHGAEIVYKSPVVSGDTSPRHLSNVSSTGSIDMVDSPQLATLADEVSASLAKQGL

The target of one assay is T1, Peptide No. 1, pS46, H-GLKE(pS)PLQT-OH (human, SMILES CC(C)C[C@H](NC(=O)CN)C(=O)N[C@@H](CCCCN)C(=O)N[C@@H](CCC(=O)O)C(=O)N[C@@H](COP(=O)(O)O)C(=O)N1CCC[C@H]1C(=O)N[C@@H](CC(C)C)C(=O)N[C@@H](CCC(N)=O)C(=O)N[C@H](C(=O)O)[C@@H](C)O).
T1 peptide: H-GLKE[pS]PLQT-OH
Nature of the assay: ELISA, coated peptide. In short, it runs like this: (§1)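 Antibody binding was taken as the absorbance signal. Plates coated with peptides or their bovine serum albumin or keyhole limpet hemocyanin conjugates (1 μg/mL in cold PBS, 50 μL/well, overnight at 4 °C) and blocked with 3% BSA-PBS overnight at 4 °C were incubated with purified antibody at 150 ng/mL for 90 minutes at room temperature. Detection used alkaline phosphatase-labelled goat anti-human IgG (H+L) at 2000-fold dilution for 60 minutes, with pNPP developed for 40 minutes and read at 405 nm (reference 550 nm).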
On the technique in general: In an ELISA, binding on a coated surface is turned into a signal by an enzyme label.
B1: the binding result is reported as “no binding (tested: OD value <0.5; antibody 150 ng/mL)”.
Regarding B2, the binding result is reported as “no binding (tested: OD value <0.5; antibody 150 ng/mL)”.
Still for that read-out and setting: then B3, with “no binding (tested: OD value <0.5; antibody 150 ng/mL)”.
With B4, the binding result was “no binding (tested: OD value <0.5; antibody 150 ng/mL)”.
In the case of B5, the binding result was “no binding (tested: OD value <0.5; antibody 150 ng/mL)”.

A further assay deals with T2, Peptide No. 2, pS199, H-SGYS(pS)PGSPGC-OH (human, SMILES N[C@@H](CO)C(=O)NCC(=O)N[C@@H](Cc1ccc(O)cc1)C(=O)N[C@@H](CO)C(=O)N[C@@H](COP(=O)(O)O)C(=O)N1CCC[C@H]1C(=O)NCC(=O)N[C@@H](CO)C(=O)N1CCC[C@H]1C(=O)NCC(=O)N[C@@H](CS)C(=O)O).
T2 peptide: H-SGYS[pS]PGSPGC-OH
Nature of the assay: ELISA, coated peptide. The method, boiled down: as §1
Regarding B1, the binding result is “no binding (tested: OD value <0.5; antibody 150 ng/mL)”.
On the same count and under the same terms, then B2, with “no binding (tested: OD value <0.5; antibody 150 ng/mL)”.
In the case of B3, the binding result is listed as “no binding (tested: OD value <0.5; antibody 150 ng/mL)”.
Same read-out and setting: then B4, with “no binding (tested: OD value <0.5; antibody 150 ng/mL)”; and B5, with “no binding (tested: OD value <0.5; antibody 150 ng/mL)”.

In the next assay the target is T3, Peptide No. 3, pS202, H-SSPG(pS)PGTPC-OH (human, SMILES C[C@@H](O)[C@H](NC(=O)CNC(=O)[C@@H]1CCCN1C(=O)[C@H](COP(=O)(O)O)NC(=O)CNC(=O)[C@@H]1CCCN1C(=O)[C@H](CO)NC(=O)[C@@H](N)CO)C(=O)N1CCC[C@H]1C(=O)N[C@@H](CS)C(=O)O).
T3 peptide: H-SSPG[pS]PGTPC-OH
Nature of the assay: ELISA, coated peptide. In short, it runs like this: as §1
As for B1, the binding result is “no binding (tested: OD value <0.5; antibody 150 ng/mL)”.
Still for that read-out and setting: next, B2: “no binding (tested: OD value <0.5; antibody 150 ng/mL)”; B3: “no binding (tested: OD value <0.5; antibody 150 ng/mL)”.
B4: the binding result is “no binding (tested: OD value <0.5; antibody 150 ng/mL)”.
The same measure, in the same setting: then B5, with “no binding (tested: OD value <0.5; antibody 150 ng/mL)”.

Another assay concerns the target T4, Peptide No. 4, pT212/pS214, H-GCGSPGTPGSRSR(pT)P(pS)LPTPPTREPK-OH (human, phosphothreonine (pT) at peptide position 14 (tau Thr212); phosphoserine (pS) at peptide position 16 (tau Ser214)).
T4 peptide: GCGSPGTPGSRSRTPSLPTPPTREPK
Nature of the assay: ELISA, coated peptide. In short, it runs like this: as §1
As to B1, the binding result is “no binding (tested: OD value <0.5; antibody 150 ng/mL)”.
Regarding B2, the binding result is given as “no binding (tested: OD value <0.5; antibody 150 ng/mL)”.
For the molecule B3, the binding result was “no binding (tested: OD value <0.5; antibody 150 ng/mL)”.
On to B4, for which the binding result is reported as “no binding (tested: OD value <0.5; antibody 150 ng/mL)”.
As for B5, the binding result is on record as “no binding (tested: OD value <0.5; antibody 150 ng/mL)”.

In a further assay the target is T5, Peptide No. 5, pT217, H-GC-GSRSRTPSLP(pT)PPTREPKKVAVV-OH (human, phosphothreonine (pT) at peptide position 13 (tau Thr217)).
T5 peptide: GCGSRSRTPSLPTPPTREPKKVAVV
Nature of the assay: ELISA, coated peptide. The method, boiled down: as §1
For the molecule B1, the binding result is given as “no binding (tested: OD value <0.5; antibody 150 ng/mL)”.
Take B2: the binding result was “no binding (tested: OD value <0.5; antibody 150 ng/mL)”.
Take B3: the binding result is given as “no binding (tested: OD value <0.5; antibody 150 ng/mL)”.
Same read-out and setting: then B4, with “no binding (tested: OD value <0.5; antibody 150 ng/mL)”; and B5, with “no binding (tested: OD value <0.5; antibody 150 ng/mL)”.

For another assay, the target named is T6, Peptide No. 6, pT231, H-KVAVVR(pT)PPKSPS-OH (human).
T6 peptide: H-KVAVVR[pT]PPKSPS-OH
Nature of the assay: ELISA, coated peptide. The method, boiled down:
as §1
For the molecule B1, the binding result is “no binding (tested: OD value <0.5; antibody 150 ng/mL)”.
The same measure, in the same setting: next, B2: “no binding (tested: OD value <0.5; antibody 150 ng/mL)”; B3: “no binding (tested: OD value <0.5; antibody 150 ng/mL)”.
Same read-out and setting: next, B4: “no binding (tested: OD value <0.5; antibody 150 ng/mL)”; B5: “no binding (tested: OD value <0.5; antibody 150 ng/mL)”.

For another assay, the target named is T7, Peptide No. 7, pS396/pS400/pS404, H-GC-RENAKAKTDHGAEIVYK(pS)PVV(pS)GDT(pS)PRHL-OH (human, phosphoserine (pS) at peptide positions 20, 24 and 28 (tau Ser396, Ser400, Ser404)).
T7 peptide: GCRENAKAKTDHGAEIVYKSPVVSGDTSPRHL
Nature of the assay: ELISA, coated peptide. In short, it runs like this:
as §1
Regarding B1, the binding result is reported as “no binding (tested: OD value <0.5; antibody 150 ng/mL)”.
For B2, the binding result was “no binding (tested: OD value <0.5; antibody 150 ng/mL)”.
Still for that read-out and setting: next, B3: “no binding (tested: OD value <0.5; antibody 150 ng/mL)”; B4: “no binding (tested: OD value <0.5; antibody 150 ng/mL)”.
As to B5, the binding result is on record as “no binding (tested: OD value <0.5; antibody 150 ng/mL)”.

The target in the next assay is T8, Peptide No. 8, pS412, H-NV(pS)STGSC-OH (human, SMILES CC(C)[C@H](NC(=O)[C@@H](N)CC(N)=O)C(=O)N[C@@H](COP(=O)(O)O)C(=O)N[C@@H](CO)C(=O)N[C@H](C(=O)NCC(=O)N[C@@H](CO)C(=O)N[C@@H](CS)C(=O)O)[C@@H](C)O).
T8 peptide: H-NV[pS]STGSC-OH
Nature of the assay: ELISA, coated peptide. The method, boiled down: as §1
With B1, the binding result is “no binding (tested: OD value <0.5; antibody 150 ng/mL)”.
In the case of B2, the binding result is listed as “no binding (tested: OD value <0.5; antibody 150 ng/mL)”.
In the case of B3, the binding result is reported as “no binding (tested: OD value <0.5; antibody 150 ng/mL)”.
For the molecule B4, the binding result is on record as “no binding (tested: OD value <0.5; antibody 150 ng/mL)”.
On the same count and under the same terms, then B5, with “no binding (tested: OD value <0.5; antibody 150 ng/mL)”.

Another assay concerns the target T9, His-tagged non-phosphorylated tau protein 4R0N (human, UniProt P10636 2-758).
T9 construct: Produced by Escherichia coli; negative control in SPR; also called ATGen Cat. No. ATGP0795
Nature of the assay: SPR Biacore T200, antigen immobilized. As for the experimental part:
The binding affinities of the hyperphosphorylated tau protein 4R2N (hpTau), non-phosphorylated tau protein 4R0N, monophosphorylated tau peptide 1×P, triphosphorylated tau peptide 3×P, and non-phosphorylated tau peptide Non P with each antibody were measured with an SPR system Biacore T200 (GE Healthcare Japan), in accordance with the instruction manual for evaluation attached to the system.
The His-tagged hpTau or Tau proteins were each immobilized on a sensor chip using an HBS-N buffer (code No. BR-1003-69) as the immobilization reaction solution and allowing a nickel chloride solution to react with the NTA sensor chip for bonding Ni to NTA. Subsequently, the sensor chip was activated with a mixed solution of N-ethyl-N′-(3-dimethylaminopropyl)-carbodiimide hydrochloride (1-ethyl-3-(3-dimethylaminopropyl)carbodiimide hydrochloride: EDC) and N-hydroxysuccinimide (NHS). A solution of each of the His-tagged proteins, adjusted to a concentration of 100 to 500 ng/mL with a 4-(2-hydroxyethyl)-1-piperazineethanesulfonic acid (HEPES) buffer (0.01 M HEPES, 150 mM KCl, 2 mM DTT, 1 mM EDTA, pH 7.2), was applied to the sensor chip, whereby the protein was immobilized on the sensor chip through covalent bonds with the Ni-NTA. The remaining active NHS was blocked with ethanolamine, and Ni ions were removed with an EDTA solution (Ni-affinity amine coupling: see International Publication No. WO2005/022156). The antigen peptides (1×P, 3×P, and Non P) were each immobilized on a sensor chip by activating the NTA sensor chip with a mixed solution of N-ethyl-N′-(3-dimethylaminopropyl)-carbodiimide (EDC) hydrochloride and N-hydroxysuccinimide (NHS), and then applying a solution of the antigen peptide diluted with a 10 mM sodium acetate buffer (pH: 4 to 4.5) to 1 to 10 μM to the sensor chip, whereby the peptide was covalently bound to the sensor chip. The remaining active NHS was blocked with ethanolamine. Thus, sensor chips immobilized respectively with the proteins and peptides mentioned above were produced.
A CAPS buffer (pH 10.5) was applied to these sensor chips at 37° C. to stabilize the protein- or peptide-immobilized surfaces of the sensor chips.
On the technique in general: Surface plasmon resonance follows binding to a sensor surface in real time, without labels.
Take B1: the binding result is on record as “no binding (tested: 0.2 to 1 nM)”.
The same measure, in the same setting: then B2, with “no binding (tested: 0.2 to 1 nM)”.
Turning to B4, the binding result is “no binding (tested: 0.2 to 1 nM)”.
Take B5: the binding result is “no binding (tested: 0.2 to 1 nM)”.
